Assay results taken from paper PMC12362618, “Development of the First Small-Molecule Inhibitor Targeting Oncostatin M for Treatment of Breast Cancer” (Journal of Medicinal Chemistry, 2025).

Target: T1, immobilized OSM (Homo sapiens, UniProt P13725)
T1 construct: purchased R&D Systems 671-GP
T1 sequence (P13725 26-212 limits assumed): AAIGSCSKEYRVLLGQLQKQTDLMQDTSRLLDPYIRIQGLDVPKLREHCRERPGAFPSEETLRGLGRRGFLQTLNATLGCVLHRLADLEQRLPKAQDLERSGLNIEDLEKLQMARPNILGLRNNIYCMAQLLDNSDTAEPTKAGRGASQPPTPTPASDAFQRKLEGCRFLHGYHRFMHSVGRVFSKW
Assay: SPR binding kinetics of gp130 on immobilized OSM
Details: 25 °C
Procedure: SPR assays were used to investigate the ability of SMI-10B13 to disrupt the binding of the OSM receptor. We began our SPR assays by replicating the gp130-to-immobilized OSM binding kinetic experiment published by Chollangi et al. to evaluate the reliability of our setup. In this experiment, increasing concentrations of gp130 were injected, and the association and dissociation phases were monitored. […] However, the signal generated was insufficient for meaningful results, likely due to the suboptimal availability of accessible binding sites for […], although maximum feasible concentrations of both immobilized and injected gp130 were reached. As a result, we shifted our focus to assess whether SMI-10B13 could influence the recruitment of gp130 to OSM in a surface competition binding assay. […] While this effect could be justified by site II competitive binding at high SMI concentrations, the NMR CSP experiments are indicative of SMI binding at site III (Figure ). […]
SPR experiments were performed on a Reichert SR7000 instrument that was fed by a Surveyor LC autosampler and pump. […] The real-time changes in refractive index units of the association and dissociation phases were monitored. […]

- Kd: 20.5 nM
B1: gp130: glycoprotein 130 receptor subunit (R&D Systems, cat. #671-GP) injected over immobilized OSM in SPR (protein)
chain: ELLDPCGYISPESPVVQLHSNFTAVCVLKEKCMDYFHVNANYIVWKTNHFTIPKEQYTIINRTASSVTFTDIASLNIQLTCNILTFGQLEQNVYGITIISGLPPEKPKNLSCIVNEGKKMRCEWDGGRETHLETNFTLKSEWATHKFADCKAKRDTPTSCTVDYSTVYFVNIEVWVEAENALGKVTSDHINFDPVYKVKPNPPHNLSVINSEELSSILKLTWTNPSIKSVIILKYNIQYRTKDASTWSQIPPEDTASTRSSFTVQDLKPFTEYVFRIRCMKEDGKGYWSDWSEEASGITYEDRPSKAPSFWYKIDPSHTQGYRTVQLVWKTLPPFEANGKILDYEVTLTRWKSHLQNYTVNATKLTVNLTNDRYLATLTVRNLVGKSDAAVLTIPACDFQATHPVMDLKAFPKDNMLWVEWTTPRESVKKYILEWCVLSDKAPCITDWQQEDGTVHRTYLRGNLAESKCYLITVTPVYADGPGSPESIKAYLKQAPPSKGPTVRTKKVGKNEAVLEWDQLPVDVQNGFIRNYTIFYRTIIGNETAVNVDSSHTEYTLSSLTSDTLYMVRMAAYTDEGGKDGPEFTFTTPKFAQGEIE
